Laboratory results published in FireProtDB (doi:10.1002/pro.5560070228).
Values joined by “and” are separate entries in the source; they are usually repeats but may differ in a detail not shown here. Equal entries are not always repeated.

Settings: Escherichia coli (strain K12), pH 7, Potassium phosphate 50 mM, KCl 100 mM, reversible: yes

Sequence of Cold shock protein CspA wild type, P0A9X9 (P0A9X9 whole entry): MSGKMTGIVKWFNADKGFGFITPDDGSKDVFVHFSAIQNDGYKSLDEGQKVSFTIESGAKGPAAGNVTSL

In the case of “Cold shock protein CspA wild type, P0A9X9”, the denaturant m value (10 °C, GdnHCl, Fluorescence) was 1.7 kcal/mol/M and 2.4 kcal/mol/M and 2.1 kcal/mol/M, the “denaturant midpoint (higher = more stable)” value (“denaturant midpoint” below) (10 °C, GdnHCl, Fluorescence) was 1.8 M and 1.6 M and the unfolding free energy (10 °C, GdnHCl, Fluorescence) was 3.1 kcal/mol and 3.8 kcal/mol and 3.3 kcal/mol. For the same substance, the denaturant m value (10 °C, Urea, Fluorescence) was 0.59 kcal/mol/M and 0.66 kcal/mol/M and 0.64 kcal/mol/M, the “denaturant midpoint” value (10 °C, Urea, Fluorescence) was 4.9 M and 5 M and 4.5 M and the unfolding free energy (10 °C, Urea, Fluorescence) was 2.9 kcal/mol and 3.3 kcal/mol and 2.8 kcal/mol. The denaturant m value (25 °C, GdnHCl, CD) was 1.7 kcal/mol/M and 2.9 kcal/mol/M and 2.1 kcal/mol/M, the “denaturant midpoint” value (25 °C, GdnHCl, CD) was 1.5 M and 1.3 M and 1.6 M and the unfolding free energy (25 °C, GdnHCl, CD) was 2.4 kcal/mol and 3.7 kcal/mol and 3.3 kcal/mol. For the same substance, the denaturant m value (25 °C, GdnHCl, Fluorescence) was 2.2 kcal/mol/M and 2 kcal/mol/M, the “denaturant midpoint” value (25 °C, GdnHCl, Fluorescence) was 1.4 M and 1.6 M and the unfolding free energy (25 °C, GdnHCl, Fluorescence) was 3.1 kcal/mol and 3.2 kcal/mol and 3 kcal/mol. The denaturant m value (25 °C, Urea, CD) was 0.6 kcal/mol/M and 0.7 kcal/mol/M, the “denaturant midpoint” value (25 °C, Urea, CD) was 4 M and 4.5 M and 4.1 M and the unfolding free energy (25 °C, Urea, CD) was 2.6 kcal/mol and 3.1 kcal/mol. The denaturant m value (25 °C, Urea, Fluorescence) was 0.71 kcal/mol/M and 0.69 kcal/mol/M and 0.78 kcal/mol/M, the “denaturant midpoint” value (25 °C, Urea, Fluorescence) was 4.2 M and the unfolding free energy (25 °C, Urea, Fluorescence) was 3 kcal/mol and 2.9 kcal/mol and 3.2 kcal/mol.
